Sequences and labels used below:
T1: Full-length human CTGF (human, UniProt P29279 27-349)
T1 construct: Corresponds to NCBI NP_001892.1 with the signal peptide omitted; purchased from R&D Systems; also called hCTGF full length; full length CTGF
T1 sequence: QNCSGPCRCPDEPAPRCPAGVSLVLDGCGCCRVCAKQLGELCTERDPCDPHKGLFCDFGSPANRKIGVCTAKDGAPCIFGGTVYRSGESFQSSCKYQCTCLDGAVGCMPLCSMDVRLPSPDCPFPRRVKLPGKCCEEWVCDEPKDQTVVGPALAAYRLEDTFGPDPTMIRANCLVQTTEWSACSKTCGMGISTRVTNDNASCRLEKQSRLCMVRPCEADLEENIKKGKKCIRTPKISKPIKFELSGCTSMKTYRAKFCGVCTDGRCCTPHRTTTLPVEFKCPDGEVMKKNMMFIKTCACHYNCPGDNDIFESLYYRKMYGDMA

B1: A45 (antibody, human IgG1, kappa, L234A L235A)
light: VVMTQTPLSLSVSLGDQASISCKSSQSIVHYNENTYLEWYLQKPGQSPQLLIYKVSSRASGVPDRFSGSGSGTDFTLKISRVEAEDLGVYYCFQGSHFPLTFGQGTKLEIKRTVAAPSVFIFPPSDEQLKSGTASVVCLLNNFYPREAKVQWKVDNALQSGNSQESVTEQDSKDSTYSLSSTLTLSKADYEKHKVYACEVTHQGLSSPVTKSFNRGEC
heavy: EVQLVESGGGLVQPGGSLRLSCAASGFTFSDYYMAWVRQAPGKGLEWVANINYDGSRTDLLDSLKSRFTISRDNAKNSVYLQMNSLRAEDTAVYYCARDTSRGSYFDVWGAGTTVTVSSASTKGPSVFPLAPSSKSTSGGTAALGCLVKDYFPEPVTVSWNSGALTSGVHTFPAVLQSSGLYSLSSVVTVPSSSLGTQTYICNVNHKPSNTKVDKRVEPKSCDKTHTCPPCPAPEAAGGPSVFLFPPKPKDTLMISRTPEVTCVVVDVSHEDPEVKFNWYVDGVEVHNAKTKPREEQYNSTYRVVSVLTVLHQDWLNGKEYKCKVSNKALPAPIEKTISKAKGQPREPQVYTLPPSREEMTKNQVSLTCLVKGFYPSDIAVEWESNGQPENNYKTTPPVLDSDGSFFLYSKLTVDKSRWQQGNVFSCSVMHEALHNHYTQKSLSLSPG
B2: A64 (antibody, human IgG1, kappa, L234A L235A)
light: VVMTQTPLSLPVSLGDQASISCRSSQSIVHYNANTYLEWYLQKPGQSPQLLIYKVSNRFSGVPDRFSGSGSGTDFTLKISRVEAEDLGVYYCFQGSHFPLTFGQGTKLEIKRTVAAPSVFIFPPSDEQLKSGTASVVCLLNNFYPREAKVQWKVDNALQSGNSQESVTEQDSKDSTYSLSSTLTLSKADYEKHKVYACEVTHQGLSSPVTKSFNRGEC
heavy: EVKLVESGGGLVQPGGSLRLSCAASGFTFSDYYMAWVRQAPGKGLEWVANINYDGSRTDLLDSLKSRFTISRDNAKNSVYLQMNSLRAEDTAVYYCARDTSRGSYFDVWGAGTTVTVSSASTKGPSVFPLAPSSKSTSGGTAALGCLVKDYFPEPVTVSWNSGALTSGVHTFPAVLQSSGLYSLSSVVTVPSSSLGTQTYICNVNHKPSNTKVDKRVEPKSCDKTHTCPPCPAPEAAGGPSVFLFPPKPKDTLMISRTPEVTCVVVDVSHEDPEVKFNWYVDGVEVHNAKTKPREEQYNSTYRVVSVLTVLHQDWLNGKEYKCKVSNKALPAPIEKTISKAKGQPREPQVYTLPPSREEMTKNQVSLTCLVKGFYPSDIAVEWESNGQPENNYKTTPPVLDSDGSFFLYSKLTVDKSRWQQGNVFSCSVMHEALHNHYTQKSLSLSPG
B3: A53 (antibody, human IgG1, kappa, L234A L235A)
light: VVMTQTPLSLPVSLGDQASISCRSSQSIVHYNENTYLEWYLQKPGQSPQLLIYKVSNRFSGVPDRFSGSGSGTDFTLKISRVEAEDLGVYYCFQGSHFPLTFGQGTKLEIKRTVAAPSVFIFPPSDEQLKSGTASVVCLLNNFYPREAKVQWKVDNALQSGNSQESVTEQDSKDSTYSLSSTLTLSKADYEKHKVYACEVTHQGLSSPVTKSFNRGEC
heavy: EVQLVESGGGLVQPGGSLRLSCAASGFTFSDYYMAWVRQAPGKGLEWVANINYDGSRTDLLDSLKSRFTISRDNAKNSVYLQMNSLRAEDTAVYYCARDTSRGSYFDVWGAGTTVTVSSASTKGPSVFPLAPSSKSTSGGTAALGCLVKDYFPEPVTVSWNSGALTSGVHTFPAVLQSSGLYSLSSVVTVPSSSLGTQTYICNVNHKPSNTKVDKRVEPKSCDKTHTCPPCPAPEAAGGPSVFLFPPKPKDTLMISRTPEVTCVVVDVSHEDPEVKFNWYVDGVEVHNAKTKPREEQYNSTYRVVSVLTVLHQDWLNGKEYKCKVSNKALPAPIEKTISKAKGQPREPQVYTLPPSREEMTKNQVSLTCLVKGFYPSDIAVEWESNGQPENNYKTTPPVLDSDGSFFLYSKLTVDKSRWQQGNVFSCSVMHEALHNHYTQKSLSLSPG
B4: A62 (antibody, human IgG1, kappa, L234A L235A, V domains shown)
VH: EVQLVESGGGLVQPGGSLRLSCAASGFTFSDYYMAWVRQAPGKGLEWVANINYEGSRTDLLDSLKSRFTISRDNAKNSVYLQMNSLRAEDTAVYYCARDTSRGSYFDVWGAGTTVTVSS
VL: VVMTQTPLSLPVSLGDQASISCRSSQSIVHYNANTYLEWYLQKPGQSPQLLIYKVSNRFSGVPDRFSGSGSGTDFTLKISRVEAEDLGVYYCFQGSHFPLTFGQGTKLEIKR
B5: A47 (antibody, human IgG1, kappa, L234A L235A, V domains shown)
VH: EVQLVESGGGLVQPGGSLRLSCAASGFTFSDYYMAWVRQAPGKGLEWVANINYDGSRTDLLESLKSRFTISRDNAKNSVYLQMNSLRAEDTAVYYCARDTSRGSYFDVWGAGTTVTVSS
VL: VVMTQTPLSLSVSLGDQASISCKSSQSIVHYNENTYLEWYLQKPGQSPQLLIYKVSSRASGVPDRFSGSGSGTDFTLKISRVEAEDLGVYYCFQGSHFPLTFGQGTKLEIKR
B6: A63 (antibody, human IgG1, kappa, L234A L235A, V domains shown)
VH: EVQLVESGGGLVQPGGSLRLSCAASGFTFSDYYMAWVRQAPGKGLEWVANINYDGSRTDLLESLKSRFTISRDNAKNSVYLQMNSLRAEDTAVYYCARDTSRGSYFDVWGAGTTVTVSS
VL: VVMTQTPLSLPVSLGDQASISCRSSQSIVHYNANTYLEWYLQKPGQSPQLLIYKVSNRFSGVPDRFSGSGSGTDFTLKISRVEAEDLGVYYCFQGSHFPLTFGQGTKLEIKR
B7: A55 (antibody, human IgG1, kappa, L234A L235A, V domains shown)
VH: EVQLVESGGGLVQPGGSLRLSCAASGFTFSDYYMAWVRQAPGKGLEWVANINYDGSRTDLLESLKSRFTISRDNAKNSVYLQMNSLRAEDTAVYYCARDTSRGSYFDVWGAGTTVTVSS
VL: VVMTQTPLSLPVSLGDQASISCRSSQSIVHYNENTYLEWYLQKPGQSPQLLIYKVSNRFSGVPDRFSGSGSGTDFTLKISRVEAEDLGVYYCFQGSHFPLTFGQGTKLEIKR
B8: A61 (antibody, human IgG1, kappa, L234A L235A)
light: VVMTQTPLSLPVSLGDQASISCRSSQSIVHYNANTYLEWYLQKPGQSPQLLIYKVSNRFSGVPDRFSGSGSGTDFTLKISRVEAEDLGVYYCFQGSHFPLTFGQGTKLEIKRTVAAPSVFIFPPSDEQLKSGTASVVCLLNNFYPREAKVQWKVDNALQSGNSQESVTEQDSKDSTYSLSSTLTLSKADYEKHKVYACEVTHQGLSSPVTKSFNRGEC
heavy: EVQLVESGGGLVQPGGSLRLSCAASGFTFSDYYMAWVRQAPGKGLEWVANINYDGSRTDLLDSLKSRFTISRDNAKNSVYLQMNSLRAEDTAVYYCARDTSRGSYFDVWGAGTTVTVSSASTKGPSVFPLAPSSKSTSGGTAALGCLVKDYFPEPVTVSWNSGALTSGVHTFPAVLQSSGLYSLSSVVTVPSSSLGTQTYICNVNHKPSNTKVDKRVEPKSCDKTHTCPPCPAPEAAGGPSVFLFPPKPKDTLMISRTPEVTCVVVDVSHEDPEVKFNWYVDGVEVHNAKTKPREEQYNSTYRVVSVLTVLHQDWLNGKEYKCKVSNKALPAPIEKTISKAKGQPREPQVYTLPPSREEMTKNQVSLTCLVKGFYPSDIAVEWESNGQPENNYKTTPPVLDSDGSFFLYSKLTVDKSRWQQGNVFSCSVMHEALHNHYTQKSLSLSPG
B9: A49 (antibody, human IgG1, kappa, L234A L235A, V domains shown)
VH: EVQLVESGGGLVQPGGSLRLSCAASGFTFSDYYMAWVRQAPGKGLEWVANINYEGSRTDLLESLKSRFTISRDNAKNSVYLQMNSLRAEDTAVYYCARDTSRGSYFDVWGAGTTVTVSS
VL: VVMTQTPLSLPVSLGDQASISCRSSQSIVHYNENTYLEWYLQKPGQSPQLLIYKVSNRFSGVPDRFSGSGSGTDFTLKISRVEAEDLGVYYCFQGSHFPLTFGQGTKLEIKR
B10: A56 (antibody, human IgG1, kappa, L234A L235A)
light: VVMTQTPLSLPVSLGDQASISCRSSQSIVHYNENTYLEWYLQKPGQSPQLLIYKVSNRFSGVPDRFSGSGSGTDFTLKISRVEAEDLGVYYCFQGSHFPLTFGQGTKLEIKRTVAAPSVFIFPPSDEQLKSGTASVVCLLNNFYPREAKVQWKVDNALQSGNSQESVTEQDSKDSTYSLSSTLTLSKADYEKHKVYACEVTHQGLSSPVTKSFNRGEC
heavy: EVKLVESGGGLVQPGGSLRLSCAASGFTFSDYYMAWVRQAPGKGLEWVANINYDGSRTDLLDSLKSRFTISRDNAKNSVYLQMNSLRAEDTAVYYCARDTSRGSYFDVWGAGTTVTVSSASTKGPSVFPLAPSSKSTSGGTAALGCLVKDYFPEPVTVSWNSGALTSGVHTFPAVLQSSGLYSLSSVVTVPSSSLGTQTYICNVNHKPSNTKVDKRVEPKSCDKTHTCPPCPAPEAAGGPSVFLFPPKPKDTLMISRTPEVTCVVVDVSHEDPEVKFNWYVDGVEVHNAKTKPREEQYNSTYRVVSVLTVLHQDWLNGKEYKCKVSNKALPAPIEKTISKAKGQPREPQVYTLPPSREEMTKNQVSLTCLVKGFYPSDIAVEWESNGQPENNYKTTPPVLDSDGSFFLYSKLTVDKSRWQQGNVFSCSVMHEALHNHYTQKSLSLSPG
B11: A50 (antibody, human IgG1, kappa, L234A L235A, V domains shown)
VH: EVQLVESGGGLVQPGGSLRLSCAASGFTFSDYYMAWVRQAPGKGLEWVANINYYGSRTDLLESLKSRFTISRDNAKNSVYLQMNSLRAEDTAVYYCARDTSRGSYFDVWGAGTTVTVSS
VL: VVMTQTPLSLPVSLGDQASISCRSSQSIVHYNENTYLEWYLQKPGQSPQLLIYKVSNRFSGVPDRFSGSGSGTDFTLKISRVEAEDLGVYYCFQGSHFPLTFGQGTKLEIKR
B12: A60 (antibody, human IgG1, kappa, L234A L235A, V domains shown)
VH: EVQLVESGGGLVQPGGSLRLSCAASGFTFSDYYMAWVRQAPGKGLEWVANINYYGSRTDLLASLKSRFTISRDNAKNSVYLQMNSLRAEDTAVYYCARDTSRGSYFDVWGAGTTVTVSS
VL: VVMTQTPLSLPVSLGDQASISCRSSQSIVHYNANTYLEWYLQKPGQSPQLLIYKVSNRFSGVPDRFSGSGSGTDFTLKISRVEAEDLGVYYCFQGSHFPLTFGQGTKLEIKR
B13: A54 (antibody, human IgG1, kappa, L234A L235A, V domains shown)
VH: EVQLVESGGGLVQPGGSLRLSCAASGFTFSDYYMAWVRQAPGKGLEWVANINYEGSRTDLLDSLKSRFTISRDNAKNSVYLQMNSLRAEDTAVYYCARDTSRGSYFDVWGAGTTVTVSS
VL: VVMTQTPLSLPVSLGDQASISCRSSQSIVHYNENTYLEWYLQKPGQSPQLLIYKVSNRFSGVPDRFSGSGSGTDFTLKISRVEAEDLGVYYCFQGSHFPLTFGQGTKLEIKR
B14: A48 (antibody, human IgG1, kappa, L234A L235A)
light: VVMTQTPLSLSVSLGDQASISCKSSQSIVHYNENTYLEWYLQKPGQSPQLLIYKVSSRASGVPDRFSGSGSGTDFTLKISRVEAEDLGVYYCFQGSHFPLTFGQGTKLEIKRTVAAPSVFIFPPSDEQLKSGTASVVCLLNNFYPREAKVQWKVDNALQSGNSQESVTEQDSKDSTYSLSSTLTLSKADYEKHKVYACEVTHQGLSSPVTKSFNRGEC
heavy: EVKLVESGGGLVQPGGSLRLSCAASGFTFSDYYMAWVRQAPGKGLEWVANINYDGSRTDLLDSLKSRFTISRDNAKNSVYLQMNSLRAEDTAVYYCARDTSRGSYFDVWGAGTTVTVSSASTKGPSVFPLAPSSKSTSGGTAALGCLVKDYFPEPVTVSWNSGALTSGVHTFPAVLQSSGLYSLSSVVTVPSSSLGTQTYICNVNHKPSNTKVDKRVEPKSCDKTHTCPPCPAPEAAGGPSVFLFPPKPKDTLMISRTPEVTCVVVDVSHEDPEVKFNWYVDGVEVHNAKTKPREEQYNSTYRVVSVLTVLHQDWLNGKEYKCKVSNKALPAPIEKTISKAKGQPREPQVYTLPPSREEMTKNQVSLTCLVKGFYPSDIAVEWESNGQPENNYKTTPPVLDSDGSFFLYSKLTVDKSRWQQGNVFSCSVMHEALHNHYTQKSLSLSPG
B15: A59 (antibody, human IgG1, kappa, L234A L235A, V domains shown)
VH: EVQLVESGGGLVQPGGSLRLSCAASGFTFSDYYMAWVRQAPGKGLEWVANINYEGSRTDLLASLKSRFTISRDNAKNSVYLQMNSLRAEDTAVYYCARDTSRGSYFDVWGAGTTVTVSS
VL: VVMTQTPLSLPVSLGDQASISCRSSQSIVHYNANTYLEWYLQKPGQSPQLLIYKVSNRFSGVPDRFSGSGSGTDFTLKISRVEAEDLGVYYCFQGSHFPLTFGQGTKLEIKR
B16: A57 (antibody, human IgG1, kappa, L234A L235A, V domains shown)
VH: EVQLVESGGGLVQPGGSLRLSCAASGFTFSDYYMAWVRQAPGKGLEWVANINYEGSRTDLLESLKSRFTISRDNAKNSVYLQMNSLRAEDTAVYYCARDTSRGSYFDVWGAGTTVTVSS
VL: VVMTQTPLSLPVSLGDQASISCRSSQSIVHYNANTYLEWYLQKPGQSPQLLIYKVSNRFSGVPDRFSGSGSGTDFTLKISRVEAEDLGVYYCFQGSHFPLTFGQGTKLEIKR
B17: A46 (antibody, human IgG1, kappa, L234A L235A, V domains shown)
VH: EVQLVESGGGLVQPGGSLRLSCAASGFTFSDYYMAWVRQAPGKGLEWVANINYEGSRTDLLDSLKSRFTISRDNAKNSVYLQMNSLRAEDTAVYYCARDTSRGSYFDVWGAGTTVTVSS
VL: VVMTQTPLSLSVSLGDQASISCKSSQSIVHYNENTYLEWYLQKPGQSPQLLIYKVSSRASGVPDRFSGSGSGTDFTLKISRVEAEDLGVYYCFQGSHFPLTFGQGTKLEIKR
B18: A58 (antibody, human IgG1, kappa, L234A L235A, V domains shown)
VH: EVQLVESGGGLVQPGGSLRLSCAASGFTFSDYYMAWVRQAPGKGLEWVANINYYGSRTDLLESLKSRFTISRDNAKNSVYLQMNSLRAEDTAVYYCARDTSRGSYFDVWGAGTTVTVSS
VL: VVMTQTPLSLPVSLGDQASISCRSSQSIVHYNANTYLEWYLQKPGQSPQLLIYKVSNRFSGVPDRFSGSGSGTDFTLKISRVEAEDLGVYYCFQGSHFPLTFGQGTKLEIKR
B19: A51 (antibody, human IgG1, kappa, L234A L235A, V domains shown)
VH: EVQLVESGGGLVQPGGSLRLSCAASGFTFSDYYMAWVRQAPGKGLEWVANINYEGSRTDLLASLKSRFTISRDNAKNSVYLQMNSLRAEDTAVYYCARDTSRGSYFDVWGAGTTVTVSS
VL: VVMTQTPLSLPVSLGDQASISCRSSQSIVHYNENTYLEWYLQKPGQSPQLLIYKVSNRFSGVPDRFSGSGSGTDFTLKISRVEAEDLGVYYCFQGSHFPLTFGQGTKLEIKR
B20: A52 (antibody, human IgG1, kappa, L234A L235A, V domains shown)
VH: EVQLVESGGGLVQPGGSLRLSCAASGFTFSDYYMAWVRQAPGKGLEWVANINYYGSRTDLLASLKSRFTISRDNAKNSVYLQMNSLRAEDTAVYYCARDTSRGSYFDVWGAGTTVTVSS
VL: VVMTQTPLSLPVSLGDQASISCRSSQSIVHYNENTYLEWYLQKPGQSPQLLIYKVSNRFSGVPDRFSGSGSGTDFTLKISRVEAEDLGVYYCFQGSHFPLTFGQGTKLEIKR

This assay concerns the target T1, Full-length human CTGF. In words: SPR, full length CTGF. A general note: In SPR one partner is held on a chip, and binding of the other changes the refractive index at the surface.
With B1, the binding result is on record as “no binding”.

The molecule B2 showed a dissociation constant Kd of 0.32 nM. In other words, the sub-nanomolar range.

Take B3: the dissociation constant (Kd) came to 0.36 nM.

Molecule B4 yielded a Kd of 0.35 nM. The Kd values of the last two molecules are within 1.5-fold of each other.

On to B5, for which the binding result is on record as “no binding”.

As to B6, the Kd came to 0.34 nM.

The molecule B7 displayed a Kd of 0.35 nM. The Kd values of the last two molecules are within 1.5-fold of each other.

Regarding B8, binding was put at a Kd of 0.35 nM.

Consider B9, for which binding was put at a Kd of 0.3 nM.

With B10, the dissociation constant Kd was 0.31 nM. This Kd and that of the molecule before are within 1.5-fold of each other.

B11: the Kd was found to be 0.26 nM. This Kd and that of the molecule before are within 1.5-fold of each other.

For B12, the Kd was found to be 0.3 nM. This Kd and that of the molecule before are within 1.5-fold of each other.

B13 returned a Kd of 0.31 nM. The Kd values of the last two molecules are within 1.5-fold of each other.

B14: the Kd stood at 0.23 nM.

The molecule B15 showed an equilibrium dissociation constant (Kd) of 0.27 nM.

Molecule B16 displayed a Kd of 0.35 nM.

Take B17: the equilibrium dissociation constant (Kd) stood at 0.2 nM.

Consider B18, for which the Kd is 0.3 nM.

B19 returned a dissociation constant Kd of 0.25 nM.

B20 gave a Kd of 0.27 nM.

As usually defined, the Kd is the constant that tells how readily two partners part at equilibrium. A low value points to a tighter complex.

For the origin of these results see patent US20250277020A1 (Boehringer Ingelheim, published 2025).
